From US20120191435A1 (SHANGHAI NATIONAL ENGINEERING RESEARCH CENTER OF ANTIBODY …, published 2012)
Numbering of substitutions follows the chain as printed.

T1: biotin labeled antigen peptide (a fragment of the CD20 extracellular domain) (human, UniProt P11836 163-187, limits assumed, biotin labeled (position not given))
T1 construct: domain: a fragment of the CD20 extracellular domain; also called short peptide CD20; CD20 antigen
T1 peptide (looked up): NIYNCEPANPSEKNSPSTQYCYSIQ

B1: C2B8 antibody mutant Rmut4 (H102YR) (antibody, V domains shown)
VH: QVQLQQPGAELVKPGASVKMSCKASGYTFTSYNMHWVKQTPGRGLEWIGAIYPGNGDTSYNQKFKGKATLTADKSSSTAYMQLSSLTSEDSAVYYCARSTYRGGDWYFNVWGAGTTVTVSA
VL: QIVLSQSPAILSASPGEKVTMTCRASSSVSYIHWFQQKPGSSPKPWIYATSNLASGVPVRFSGSGSGTSYSLTISRVEAEDAATYYCQQWTSNPPTFGGGTKLEIK
B2: C2B8 antibody mutant Rmut1 (H55NE) (antibody, V domains shown)
VH: B1 VH with N55E, R102Y
VL: B1 VL
B3: C2B8 antibody mutant Rmut2 (H55NR) (antibody, V domains shown)
VH: B1 VH with N55R, R102Y
VL: B1 VL
B4: C2B8 antibody mutant Rmut3 (H57DE) (antibody, V domains shown)
VH: B1 VH with D57E, R102Y
VL: B1 VL
B5: C2B8 antibody mutant Rmut5 (H102YS) (antibody, V domains shown)
VH: B1 VH with R102S
VL: B1 VL
B6: C2B8 antibody mutant Rmut6 (H102YT) (antibody, V domains shown)
VH: B1 VH with R102T
VL: B1 VL
B7: C2B8 antibody mutant Rmut7 (H102YK) (antibody, V domains shown)
VH: B1 VH with R102K
VL: B1 VL
B8: anti-CD20 chimeric antibody Rituximab (C2B8), un-mutated, expressed in CHO-K1 cells in this filing (antibody, human IgG1, kappa, V domains shown)
VH: B1 VH with R102Y
VL: QIVLSQSPAILSASPGEKVTMTCRASSSVSYIHWFQQKPGSSPKPWIYATSNLASGVPVRFSGSGSGTSYSLTISRVEAEDAATYYCQQWTSNPPTFGGGTKLEIKR
notes: Whole chimeric IgG1 kappa; also called WT; un-mutated C2B8

Molecular target: T1, biotin labeled antigen peptide (a …)
Assay: Biacore SPR, biotin-CD20 peptide on SA chip; ratio against commercially available rituximab
Protocol: (§1) A SA chip was balanced in 50 μl/min of PBS solution for 30 minutes at 25° C. and then activated three times with activation solution of 1M NaCl and 50 mM NaOH, for 1 minute per time. […] Then the chip was balanced in 50 μl/min of PBS solution for 10 minutes. The balanced SA chip was blocked with 0.04% of biotin solution. The antibody was diluted to five concentrations by double dilution. The samples were loaded at the flow rate of 50 μl/min for 75 seconds and dissociated with PBS solution for 10 minutes.

**Q.** How did the KdRitu/Kdmutant turn out when B1 was run?
**A.** 2.23

**Q.** With B2 as the binder, how does the KdRitu/Kdmutant read?
**A.** 0.69

**Q.** How did the KdRitu/Kdmutant turn out when B3 was run?
**A.** 0.78

**Q.** For B4, which KdRitu/Kdmutant is on record?
**A.** 7.73

**Q.** With B5 as the binder, how does the KdRitu/Kdmutant read?
**A.** 2.35

**Q.** For B6, which KdRitu/Kdmutant is on record?
**A.** 2.34

**Q.** Which KdRitu/Kdmutant does the source give for B7 here?
**A.** 5.04

Molecular target: T1, biotin labeled antigen peptide (a …)
Assay: Biacore SPR, biotin-CD20 peptide on SA chip; ratio against un-mutated C2B8 (WT)
Protocol: as §1

**Q.** Which KdWT/Kdmutant does the source give for B1 here?
**A.** 1.75

**Q.** For B2, which KdWT/Kdmutant is on record?
**A.** 0.54

**Q.** B3 was tested. Which KdWT/Kdmutant did it give?
**A.** 0.61

**Q.** Which KdWT/Kdmutant does the source give for B4 here?
**A.** 6.08

**Q.** With B5 as the binder, how does the KdWT/Kdmutant read?
**A.** 1.85

**Q.** Which KdWT/Kdmutant does the source give for B6 here?
**A.** 1.84

**Q.** How did the KdWT/Kdmutant turn out when B7 was run?
**A.** 3.96

Molecular target: T1, biotin labeled antigen peptide (a …)
Assay: Biacore SPR, biotin-CD20 peptide on SA chip, antibody in flow
Protocol: as §1

**Q.** Which Kd does the source give for B8 here?
**A.** 44.1 nM
